From the nanobody polyreactivity screen of Harvey et al. (2022)

Test: yeast display, Sf9 membrane polyspecificity reagent, FACS + sequencing; frameworks hold sequencing errors
Method in brief: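 Nanobodies from a synthetic yeast display library (Saccharomyces cerevisiae BJ5465), induced 36–48 hours with galactose, were stained 1 hour at 4 °C with 10% biotinylated, detergent-solubilized Sf9 membrane reagent, enriched on streptavidin microbeads, then FACS-sorted. Anti-HA (expression) and streptavidin (reagent binding) fluorescence set low and high (top ~1%) gates. Polyreactivity labels come from the gate of origin. Genes were colony-PCR amplified, MiSeq 2 × 250 sequenced and filtered by CDR length.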

Sequence	polyreactivity (PSR sort gate)
QVQLVESGGGLVQAGGSLRLSSSACGSTFYKNAMGWDRQAPGKERELVAGISRRGGRTYYADSLKGRFTISRDNANNTVYLQMNSLKPVDTADYYCNTGHEEDEYDYWGQGTQVTVSS	low polyreactivity
QVQLVESGGGLVQAGGSLRLSSTASGSTIVAYAMGWYRQAPGKERELVAAITSSGGRTYYADSVKGRFTISRDNAKNSVYLQMNSLKPEDTAVYYCAAVTHGRYDWGQGTQVTVSS	high polyreactivity
QVQLVESGGGLVQAGGSLRLSWAASGFIFAYYAMGWYTPAPGKERELVAAISKRGGSTYYADSVKGRFTISRDNAKNTVYLQMNSLKPEDTAVYYCAADGHGGYGYWGQGTQVTVSS	high polyreactivity
QVQLVESGGGLVQAGGSLRLSWAASGFIFVSNAMGWYRQAPGKERELVAAITSGDNTKYADSVKGRFTISRDNAKNTVYLQMNSLKPEDTAVYYCAVTNRYQGAGYYWGQGTQVTVSS	low polyreactivity
QVQLVESGGGLVQAGGSLRLSWAASGFTFRRNAMGWYRQAPGKEREFVAAITRSGGSTYYADSVKGRFTISRDNAKNTVYVHMNSLKPEDTAVYYCAKERPTDRYPSDEYWGQGTQVTVSS	high polyreactivity
QVQLVESGGGLVQAGGSLRLSWAASGITFATKAMGWYRQAPGKERELVAGITSGGSTYYADSVKGRFTISRDNAKNTVYLQMNSLQPEDTAVYYCANRYHYWYGTGYDYWGQGTQVTVSS	low polyreactivity
QVQLVESGGGLVQAGGSLRLSWAASGITFSRNAMGWYRQAPGKESELVATITSGGSTNYADSVKGRFTISRDHAKNTVYLQMNSLKPEDTAVYYCNAVWNNFISGRSYDYWGQGTQVTVSS	low polyreactivity
QVQLVESGGGLVQAGGSLRLSWAASGLIFVYNDMGWYRQAPGKEMELVAAIRWSSGRTYYADSVKGRFTISRDNAKNTVYLQMNSLKPEDTAVYYCAAKGVGPERGGYDYWGQGTQVTVSS	high polyreactivity
QVQLVESGGGLVQAGGSLRLSWAASGRILSANAMGWYRQAPGKERELVAAITYSGDNTYYADSVKGRFTISRDNAKNTVDVQMNSLKPEDTAVYYCAAVRYYAYLSSWRYDYWGQGTQVTVSS	low polyreactivity
QVQLVESGGGLVQAGGSLRLSWAASGRTLWYYTMGWYRQAPGKERELLAGITVSGGSTYYADSVKGRFTISRDNAKNTVYLQMNSLKPEDTAVYYCADGYYSTWKQASRYRYYYWGQGTQVTVSS	high polyreactivity
QVQLVESGGGLVQAGGSLRLSWAASGSIFGNAMGWYRQAPGKEREFVAAISSSGSSTYYADSVKGRFTISRDNAKNTVYLQMNSLKPEDTAVYYCAKRRRSAAPKYDYWGQGTHVTVSS	high polyreactivity
QVQLVESGGGLVQAGGSLRLSWAASGSIFKYYAMGWYRQAPGKDRELVADISRSGGRTYYADSVKGRFTISRDNAKNTVFLQMNSLKPEDTAVYYCAKRYSRGSQDDYWGQGTQVTVSS	high polyreactivity
QVQLVESGGGLVQAGGSLRLSWAASGSIFRSYAMGWYRQAPGKEREFVAAIPNSSGRTYYADSVKGRFTISRDNAKNTVYLQMNSLKPEDTAVYYCAARLPRTYQGGKLYRLQYSWGQGTQVTVSS	high polyreactivity
QVQLVESGGGLVQAGGSLRLSWAASGSIFVHNTMGWYRQAPGKERELVAAITRSVGRTYFADSVKGRFTISRDNAKNTVYLQMTSLQPADTAVYYCAKPASKGYYWGQGTQVTVSS	high polyreactivity
QVQLVESGGGLVQAGGSLRLSWAASGSTFDSNGMGRYRQAPGKERELVATITSRGASTNYSDSVKGRFTISRDNAKNTVYLEMNSLKPEDTAVYYCNREVPWWLYKYVGHDYWGQGTQVTVSS	low polyreactivity
QVQLVESGGGLVQAGGSLRLSWAASGSTFDYYAMGWYRQAPGKERELVAAIRWSDGSTYYADSVKGRFTISRDNAKNTVYLQMNSLKPEDTAVYYCAADALYWIGRMDYWGQGTQVTVSS	low polyreactivity
QVQLVESGGGLVQAGGSLRLSWAASGSTFPYYAMGWYRQAPGKERELVAAISWSDANTYYADSVKGRFTISRDNAKNTVYLQMNSLKPEDTAVYYCAAEPYDRYGPYTGYGLNYWGQGTQVTVSS	low polyreactivity
QVQLVESGGGLVQAGGSLRLSWAASGSTFYPYAMGWYRPAPGKERELVAAISSSSSTNYADSVKGRFTISRDNAKNTVYLQMNSLKPEDTAVYYCAVTRVIESKQIRYDYWGQGTQVTVSS	low polyreactivity
QVQLVESGGGLVQAGGSLRLSWDASGYTFSRNAMGWYRQAPGKERELVAGISWSGSRTYYADSVKGRFTISRDNAKNTVYLQMNSLKPEDTAVYYCAVLAYGPRNARGGTAGYDYWGQGTEVTVSS	high polyreactivity
QVQLVESGGGLVQAGGSLRLSYAASGSTFHLYAMGWYRQAPGKERELVASINSGGSTYYADSVKGRFTISRDNAKNTVYLQMNSLKPEDTAVYYCAADAYSWWGRWERYPYTTMYYWGQGTQVTVSS	low polyreactivity
QVQLVESGGGLVQAGGSLRLTCAASGAIFEYYSMSWYIQAPGKERELVAAISSGGPTYYADSVKGRFTISRDNAKNTVYLQMNSLKPEDTAVYYCNADLWYPDYEYWGQGTQVNVSS	low polyreactivity
QVQLVESGGGLVQAGGSLRLTCAASGFIFNRYAMGWYRQAPGKERELDADLTGGSTYYAVSVKGRFTISRDNAKKSVYLQLNSVTPEDTAVDYCAADVLPISTLLFRGPGFDSWGQGTQVTFSS	low polyreactivity

Sequence	polyreactivity (PSR sort gate)
QVQLVESGGGLVQAGGSLRLTCAASGFIFPRYAMGWYRQAPGKERELVAAISGNGVRTYYADSVKGRFTISRDNAKNTVYLQMNSLNPEDTAVYYCNTGADVRYRYYYWGQGTQVTVSS	high polyreactivity
QVQLVESGGGLVQAGGSLRLTCAASGFIFYKYAMGWYRQAPGKERELVAAISRGGGSTYYADSVKGRFTISRDNAKNTVYLQMNSLKPEETAVYYCAAQAFIVRPSYVPRHNYWGQGTQVTVSS	high polyreactivity
QVQLVESGGGLVQAGGSLRLTCAASGFTFFTYTMGWYRQPPGKERELVAAISRDGARTNYADSVKGRFTISRDNAKNTVYLQMNSLKPEDTAVYYCAAPTSHLYTEKYDYWGQGTQVTVSS	high polyreactivity
QVQLVESGGGLVQAGGSLRLTCAASGFTFGRYAMGWYRQAPGKERELVAAISTRGGSTYYADSVKGRFTISRDNAKNTVYLQMNSLKPEDTAVYYCAAGGYYVRYDYWGQGTQVTVSS	high polyreactivity
QVQLVESGGGLVQAGGSLRLTCAASGFTFSEYAMGWYRQAPGKEMEVVAAISWRGGSTYYADSVKGRFTISRDNAKNTVYLQMNSLKPEDTAVYYCAADSSGVYASWYKMDYWGKGTQVTVSS	high polyreactivity
QVQLVESGGGLVQAGGSLRLTCAASGFTFVINDMGWYRQAPGKERELVADITSGGDTYYADSVKGRFTISRDNAKNTVNFQMYSLKPEDTAVYYCAADIYPDWIYLLYGYWGQGTQVTVSS	low polyreactivity
QVQLVESGGGLVQAGGSLRLTCAASGFTIGYYAMGWYRQAPGKERELVAAISWSGGRTYYADSVKGRFTISRDNAKNTVYLQMNSLKPEDTAVYDCAADGQQTYSGYDYWGQGTQVTVSS	high polyreactivity
QVQLVESGGGLVQAGGSLRLTCAASGFTLGLNAMGWYRQAPGKEREVVAAIRRSAGSTYYADSVKGRFTISRDNAKNTVYLQMNSLKPEDTAVYYCAAGFLWAKYAYGHWGQGTQVTVSS	low polyreactivity
QVQLVESGGGLVQAGGSLRLTCAASGGIFVFYAMGWYRQAPGKERELVAAIRYGGSSTYYADSVKGRFTISRDNAKNTVYLQMNSLKPEDTAVYYCAAEPYSWDTWVDYDYWGQGTQVTVSS	low polyreactivity
QVQLVESGGGLVQAGGSLRLTCAASGIIFQNYAMGWYRQAPGKERELVAGITGRGGITYYTDSVKGRFTISRDNAKNTVYVQMNSLKPEDTAVSSCAARRYRFAGDYRMYYWGQGTQVTVSS	high polyreactivity
QVQLVESGGGLVQAGGSLRLTCAASGLIFGSNAMRWYRKAPGKERELVAGISGSGEHYVLRRSVKGRFTISRDNAKNTVYVQMNSLKPEDTAVYYCATYSQSSKGPAGYDYWGQGTHVTVSS	high polyreactivity
QVQLVESGGGLVQAGGSLRLTCAASGLIFPFYAMGWYRQATGKERELVAAISSRGGSTYYADSVKGRFTISRDNAKNTVYLQMSSLKPEDTAVYYCAADYGEEYEYSGQGTQVTVSS	high polyreactivity
QVQLVESGGGLVQAGGSLRLTCAASGNIFFVYDMGWYRQAPGKERELVAAISWSGGSTYADSVKGRFTISRDNAKNTVYLQMNSVKPEDTAVDYCAADVAYVEYDYWGQGTQVTVSS	low polyreactivity
QVQLVESGGGLVQAGGSLRLTCAASGNIFKVYAMGWSRQAPGKERELVAAITSGGGTKYADSVKGRFTISRDNAKNTVYLQMNSLKPEDTAVYYCAARFKYDVAKRYGYWGQGTQVTVSS	high polyreactivity
QVQLVESGGGLVQAGGSLRLTCAASGNIFRAYAMGWYRQAPGKERELVAAISWNAGTTYYADSVKGRFTISRDHAKNTVYLQMHSLKPEDTAVYYCAASKLLRRGLCKYYKATYSYDYWGQGTQVTVSS	high polyreactivity
QVQLVESGGGLVQAGGSLRLTCAASGNTFSLNPMGWYRQATGTETELVASSTWDGASTYADSVKGRFTISRDNAKNTVFLQMNSLKPEDTAVYFCAADTYRYGRFLKFDYWGQGTQVTVSS	low polyreactivity
QVQLVESGGGLVQAGGSLRLTCAASGNTFYGYSKGWYRQATGKERELVASISLSGDSTYYADSVKGRFTISRDNAKNTVYLQLNSLKPEDTAVYYCAGVYTYPLGYYHYTYDYWGQGTQVTVSS	low polyreactivity
QVQLVESGGGLVQAGGSLRLTCAASGRIFALYAMGWYRQAPGKERELVAAITSGSTYYADSVKGRFTISRDNAKNTVYLQMNSLKPEDTAVYYCAADANYYPTEYYPFDYWGQGTQVTVSS	low polyreactivity
QVQLVESGGGLVQAGGSLRLTCAASGRIFGAYTMGWYRQEPGKERELVAAISWSGGRTYYADSVKGRFTISRDNAKNTFYLQLNSLNAEDTAVYYCNVRRQSGRYRVYEYDYWGQGTQVTVSS	low polyreactivity
QVQLVESGGGLVQAGGSLRLTCAASGRIFNYYAMGWYRQAPGKEREFVAAITRSGGRTYYADSVKGRFTISRDNAKNTVYLQMNSLKPEDTAVYYCAAPYGTYAYDYWGQGTQVTVSS	high polyreactivity
QVQLVESGGGLVQAGGSLRLTCAASGRIFRPYTMGWYRQAPGKESELVARISISTGRTYYADSVKGRFTISRDNAKNTVYLQMNSLKPEDTAVYYCATRGYRWSVFDYWGQGTQVTVSS	high polyreactivity
